Experiments:
[1] = biological target: T1, Biotinylated Recombinant Human PD-1 (CD279)-Fc Chimera (carrier-free), Biolegend #789406 (human, UniProt Q15116 25-167, biotinylated (site not stated)); assay: ELISA (OD 450 nm): antibody coated on the plate, biotinylated human PD-1-Fc titrated, streptavidin-HRP detection; x axis 'Molecule (nM)'; EC50 table beside the plot
T1 construct: Bought reagent; also called h-PD1 Fc; Fc part of the bought chimera not given

[2] = biological target: T1, Biotinylated Recombinant Human PD-1 …; assay: ELISA (OD 450 nm): immunocytokine coated on the plate, biotinylated human PD-1-Fc titrated, streptavidin-HRP detection; x axis 'Molecule (nM)'; EC50 table beside the plot
Procedure: Each of these variant conjugates and unmodified antibodies were assayed by ELISA for their ability to bind to human PD-1 according to the following protocol.
Streptavidin-HRP was Sigma #RABHRP3. TMB solution was 3,3′,5,5′-Tetramethylbenzidine (Sigma T0440). Stop solution was Sigma #CL07STOP solution (0.5M H2SO4). Buffers were: Coating buffer was PBS. Wash buffer was PBS-0.02% Tween20. Blocking buffer was PBS-0.02% Tween20 1% BSA. Protein diluent was PBS-0.02% Tween20 0.1% BSA. STOP solution was 0.5M H2SO4. […] The ELISA plates were washed 4 times with 100 μl PBS—0.02% Tween20. and blocked with PBS—1% BSA. A serial dilution of h-PD1 Fc was prepared and plates were incubated for two hours at 37° C., with shaking (600 rpm). ELISA plates were washed and incubated with Streptavidin-HRP 30 min at RT, with shaking (600 rpm). ELISA plates were washed and incubated with ready-to-use TMB solution. Reaction was stopped and plates were read by OD450 on an Enspire plate reader.

T1 sequence (Q15116 25-167, change not shown): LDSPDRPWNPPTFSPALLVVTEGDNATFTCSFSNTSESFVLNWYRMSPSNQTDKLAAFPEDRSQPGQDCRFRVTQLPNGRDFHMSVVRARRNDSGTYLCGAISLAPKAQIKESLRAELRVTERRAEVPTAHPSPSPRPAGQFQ

Binder | EC50 [1] [nM] | EC50 [2] [nM]
LZM-009 (unmodified anti-PD-1 antibody, SEQ ID NOs: 76-77) (antibody, V domains shown, It was tested as a full antibody with an Fc region (K248, Eu numbering); also called parental antibody) VH: QVQLVQSGAEVKKPGASVKVSCKASGYTFTSYYMYWVRQAPGQGLEWMGGVNPSNGGTNFNEKFKSRVTITADKSTSTAYMELSSLRSEDTAVYYCARRDYRYDMGFDYWGQGTTVTVSS VL: EIVLTQSPATLSLSPGERATISCRASKGVSTSGYSYLHWYQQKPGQAPRLLIYLASYLESGVPARFSGSGSGTDFTLTISSLEPEDFATYYCQHSRELPLTFGTGTKVEIK | 0.035 | 
Composition C (LZM-009-IL-7 conjugate, DAR 1) (other, not fully specified; Nle at 17, 27, 54, 69, 147; Hse at 36, 76, 114; N-terminal amine carries the glutaryl-PEG-azide handle of Composition AA, joined by a chemical linker to K248 of the antibody heavy chain; K248 (Eu numbering) of the Fc region, whose sequence is not given, carries a DBCO linker reacted with the azide of Composition AA (triazole); drug-antibody ratio 1, Chemical conjugate; also called immunocytokine Composition C) VH: QVQLVQSGAEVKKPGASVKVSCKASGYTFTSYYMYWVRQAPGQGLEWMGGVNPSNGGTNFNEKFKSRVTITADKSTSTAYMELSSLRSEDTAVYYCARRDYRYDMGFDYWGQGTTVTVSS VL: EIVLTQSPATLSLSPGERATISCRASKGVSTSGYSYLHWYQQKPGQAPRLLIYLASYLESGVPARFSGSGSGTDFTLTISSLEPEDFATYYCQHSRELPLTFGTGTKVEIK DCDIEGKDGKQYESVLXVSIDQLLDSXKEIGSNCLXNEFNFFKRHICDANKEGXFLFRAARKLRQFLKXNSTGDFXLHLLKVSEGTTILLNCTGQVKGRKPAALGEAQPTKSLXENKSLKEQKKLNDLCFLKRLLQEIKTCWNKILXGTKEH |  | 0.0348

From patent publication US20240158537A1 (BRIGHT PEAK THERAPEUTICS, published 2024)
